Laboratory results: JP2020188737A

Assays:
[1] = biological target: ヒトFcγRIIIaを固定化した担体(分離剤)を詰めたカラム(FcR9_Fカラム、WO2018/150973号の実施例5に記載); experiment: FcγRIIIa affinity chromatography (FcR9_F column), peak area share; antibody from 9-day jar fermenter batch culture with 1 mM L-glutamine
[2] = biological target: ヒトFcγRIIIaを固定化した担体(分離剤)を詰めたカラム(FcR9_Fカラム、WO2018/150973号の実施例5に記載); experiment: FcγRIIIa affinity chromatography (FcR9_F column), peak area share; antibody from 9-day jar fermenter batch culture with 10 mM L-glutamine

ピーク1(結合力が弱いピーク)の面積割合 [1]: 25%
ピーク3(結合力が強いピーク)の面積割合 [1]: 36%
ピーク1(結合力が弱いピーク)の面積割合 [2]: 42.3%
ピーク3(結合力が強いピーク)の面積割合 [2]: 22.1%
B1: 抗インターロイキン6レセプター(IL−6R)抗体 (antibody, human IgG1, V domains shown)
VH: QVQLQESGPGLVRPSQTLSLTCTVSGYSITSDHAWSWVRQPPGRGLEWIGYISYSGITTYNPSLKSRVTMLRDTSKNQFSLRLSSVTAADTAVYYCARSLARTTAMDYWGQGSLVTVSS
VL: DIQMTQSPSSLSASVGDRVTITCRASQDISSYLNWYQQKPGKAPKLLIYYTSRLHSGVPSRFSGSGSGTDFTFTISSLQPEDIATYYCQQGNTLPYTFGQGTKVEIK
